The results in this text go back to article PMC5636753, “Structural basis for DAXX interaction with ATRX” (Protein & Cell, 2017).

The chains are these.
B1: DAXX-binding motif of ATRX, ATRX_(1,260–1,289) [not stated] / DAXX helical bundle (DHB) domain, DAXX_(55–144) [not stated] (parent complex)
chain 1: DDDDDNDPENRIAKKMLLEEIKANLSSDED
chain 2: GKKCYKLENEKLFEEFLELCKMQTADHPEVVPFLYNRQQRAHSLFLASAEFCNILSRVLSRARSRPAKLYVYINELCTVLKAHSAKKKLN
B2: ATRX_(1,253–1,326) [not stated] / DAXX helical bundle (DHB) domain, DAXX_(55–144) [not stated] (parent complex)
chain 1: SVPVTVDDDDDDNDPENRIAKKMLLEEIKANLSSDEDGSSDDEPEEGKKRTGKQNEENPGDEEAKNQVNSESDS
chain 2: B1 chain 2

One assay covers variants of B1. Nature of the assay: ITC.
In general, Kd refers to the equilibrium constant for the complex coming apart. Consider chain 1 D1A, chain 1 D2A, chain 1 D3A, chain 1 D4A, chain 1 D5A, for which the Kd was 0.85 µM.
With chain 1 D7A, chain 1 E9A, the Kd came to 1.75 µM.

The next assay covers variants of B2. In words: ITC. Background: Isothermal titration calorimetry measures the heat released or taken up as one component is titrated into another.
On to chain 1 I28A, for which the Kd is 0.4 µM.
With chain 1 I28Q, the Kd came out at 7.35 µM.
As to chain 1 I28R, the Kd stood at 34.8 µM.
With chain 1 L25R, the Kd is 0.97 µM.
In the case of chain 1 L24A, chain 1 I28A, the Kd was determined as 12 µM.
Consider chain 1 L24Q, for which the Kd was 43.3 µM.
With chain 1 L24R, the Kd was determined as 73.5 µM.
As for chain 1 L24A, the Kd is 8.33 µM.
For the variant chain 1 A20R, the Kd is 1.04 µM.
